Data on 40 sequences can be found in the nanobody polyreactivity screen of Harvey et al. (2022).

This data set is described as follows: yeast display, Sf9 membrane polyspecificity reagent, FACS + sequencing; frameworks hold sequencing errors. The method, boiled down: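 Nanobodies from a synthetic yeast display library (Saccharomyces cerevisiae BJ5465), induced 36–48 hours with galactose, were stained 1 hour at 4 °C with 10% biotinylated, detergent-solubilized Sf9 membrane reagent, enriched on streptavidin microbeads, then FACS-sorted. Anti-HA (expression) and streptavidin (reagent binding) fluorescence set low and high (top ~1%) gates. Polyreactivity labels come from the gate of origin. Genes were colony-PCR amplified, MiSeq 2 × 250 sequenced and filtered by CDR length.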
“QVQLVESGGGVVQAGGSLRLSCAASGRTSGSYAMGWYRQAPGNERELVAVITTSDGSTYYADSVKGRFTISRDNAKNTVYLQMNSLKPEDTAVYYCNVDYPNLWYDSYYYWGQGTQVTVSS”: the “polyreactivity (PSR sort gate)” value is recorded as “low polyreactivity”.
“QVQLVESGGGVVQAGGSLRLSCAASGSFFYVYAMGWYRQAPGKERELVAAITATYYADSVKGRFTISRDNAKNTVYLQMNSLKPEDTAVYYCAAAPWTYWEDYDFWGQGTQVTVSS”: the “polyreactivity (PSR sort gate)” value is “low polyreactivity”.
For the sequence “QVQLVESGGGVVQAGGSLRLSCAASGSIFKSYAMGWYRQAPGKERELVAAITWSGGSTHYADSVKGRFTISRDNAKNTVYLQMNSLKPEDTAVYYCAADGYTGQAELDSWGQGTQVTVSS”, the “polyreactivity (PSR sort gate)” value is listed as “low polyreactivity”.
For the sequence “QVQLVESGGGVVQAGGSLRLSCAASGSIFLRYAMGWYREAPGKERELVAAITSSGGSTYYADSVKGRFTISRDNAKNTVYLQMNSLKPQDNAVYYCNARAYTRYSRLDYWGQGTQVSVSS”, the “polyreactivity (PSR sort gate)” value is listed as “high polyreactivity”.
Regarding “QVQLVESGGGVVQAGGSLRLSCAASGSIFPINAMGWYRQAPGKERELVAAITSGGSTNYADSVKGRFTISRDNAKNTVYLQMNSLKPEDTAVYYCAADWRYWRWAFDYWGQGTQVTVSS”, the “polyreactivity (PSR sort gate)” value is given as “high polyreactivity”.
On to “QVQLVESGGGVVQAGGSLRLSCAASGSIFYSYAMGWYRQAPGKERELVAAISSSGTSTYYADSVKGRFTISRDNAKNTVYLQMNSLKPEDTAVYYCAARFYGTSYYRYNYWGQGTQVTVSS”, for which the “polyreactivity (PSR sort gate)” value is given as “high polyreactivity”.
In the case of “QVQLVESGGGVVQAGGSLRLSCAASGSIFYYYAMGWYRQAPGKERELVASITHTGGSTNYADSVKGRFTISRDNAKNTVYLQKNSLKPEDTAVYYCAAEYWNDNYSDPLYDYWGQGTQVTVSS”, the “polyreactivity (PSR sort gate)” value was “low polyreactivity”.
The result for “QVQLVESGGGVVQAGGSLRLSCAASGSTFARKAMGWYRPAPGKERELVAAITYSGGRTYYADSVKGRVTISRDNAKNTVYLQMNRLKPVDTAVYYCAVKSFSGHGDYWGQGTQVTLSS” reads “low polyreactivity”; that for “QVQLVESGGGVVQAGGSLRLSCAASGTFYLYAMGWYRQAPGKERELVAAISGSGSTNYADSVKGRFTISRDNAKNTVYLQMNSLKPEDTAVYYCAAYQRYDSVTGARYEYDYWGQGTQVTVSS”, “low polyreactivity”; that for “QVQLVESGGGVVQAGGSLRLSCAAYGRTFYVYTLGWYRPAPGKERELVAANTSGGSTNYADCVMGRFTISRDYAKNTVYLQMNSLKPEDTAVYYCAAKRYNRLRSYRYSDREDYWGQGTQVTVSS”, “high polyreactivity”.
As for “QVQLVESGGGVVQAGGSLRLSCAGSGFIFSYYTMGWYRQAPGKERELVAAITSGGSTNYADSVKGRFTISRDNAKNTVYLQMNSLKPEDTAVYYCNALLWAWTLWGSGYDYWGQGTQVTVSS”, the “polyreactivity (PSR sort gate)” value was “low polyreactivity”.
Then “QVQLVESGGGVVQAGGSLRLSCSASGSTFLGYVMGWYRQAPGKEREFVAVISRSGGDTYYADSVKGRFTISRDNAKNTVYLQMNSLKPEDTAVFYCNTRVRASSVDYDEGDYWGQGTQVTVSS”, with “low polyreactivity”; and “QVQLVESGGGVVQAGRSLRLSCAASGRLFYEYAMGWYRQAPGKEREFVAAISYSGSRTYYADSVKGRFTISRDNAKYTVYLQLNCLIPEDTAVYYCAAVVAFGTGTFYYWGQGRQVTVSS”, with “high polyreactivity”.
Then “QVQLVESGGGVVQSRGSLRLTCAASGRIFLQYAMGWYRQAPWKERELVAAIEWSGGRTYYADSVKGRFTISRDNAKNTVYLQMNSLTPEDTAVYYCAARRISGSAVRGSRGYWGQGTQVTVSS”, with “high polyreactivity”.
As for “QVQLVESGGLLVQAGGILRLSCAASGITFQYYAMGWSRQAPGKERELVAANTSSGVSTYYADSVKGRFTISRDNAKNTVYFQMNSLKPEDTAVYYCNTVVRGWSSSADDYWVQGTQVTVSS”, the “polyreactivity (PSR sort gate)” value is listed as “low polyreactivity”.
With “QVQLVESGGLLVQAGGSIRITCAASGSTLWFNAMGWYRQAPGKERELVAAINWSGGSTYYADSVKGRFSISRDNAKITVYVQMTSLKPEDTAVYYCAAFYQYVHYVWYDYWGQGSQVTVSS”, the “polyreactivity (PSR sort gate)” value is listed as “low polyreactivity”.
Then “QVQLVESGGLLVQAGGSLRLSCAASGFIFNQYAMGWDRQAPAKVREFVAGISWSGGATYYADSVKGRFTISRDNAKNTVYLQMNSLKPEETAVYYCAADRTYSFYYTQGYEYWGQGTHVTVSS”, with “low polyreactivity”.
With “QVQLVESGGPLVQAGGSLRLSFAACGFTLWSYSLGWYRQAPGKESELVAAINSRGGRTSYADSVKGRFTISRDNAKNTVYLQINRLKPEDTAVYYCATDPISRARLYGQRDYWGQGTQVTVSS”, the “polyreactivity (PSR sort gate)” value is recorded as “high polyreactivity”.
Take “QVQLVESGGRIFQAGGSLRLSCAASGLIFPYYVMGWYRQAPGKERELVADITWSGGRTYYADSVKGRFTISRDNAKNTVYLQMNSLKPEDTSVYYCKAETGGVYDNYYYVGEYYFWGQGTQVTVSS”: the “polyreactivity (PSR sort gate)” value is given as “low polyreactivity”.
Take “QVQLVESGGRIVQAGGSLRLSCDASGSTIFGNGMGWYRQAPGKERELVAAISGGGSTHYADSVKGRFTISRDNAKNTVYLQMNSVKPEDTAVYYCSPSRDTDGRGPIQRDFWGQGTQVTVSS”: the “polyreactivity (PSR sort gate)” value was “low polyreactivity”.
Regarding “QVQLVESGGRLDQAGGSLRLSCAASGRIFSRNTMGWYRQAPGKERELVATITSAGSTSFADSVKGRFTISRDNAKNTVYLQMNSLKPENTAVYYCAKRGAYATGRRYDPYGYWGQGTQVTVSS”, the “polyreactivity (PSR sort gate)” value is listed as “high polyreactivity”.
“QVQLVESGGRLDQARGSLRLSCAASGYNFQPYAMGWYRLAPGKERDLVAAISWRGGSTYYADSVKGRFTISRDNAKNTVYLQMTSLKPEDTAVYYCAKDYYYGLEHYGYWGQGTQVTVSS”: the “polyreactivity (PSR sort gate)” value is recorded as “low polyreactivity”.
For “QVQLVESGGRLLQAGGSLRLSCAASGRIIGLYAMGWYRPAPGKEWEFVAAINWDGGSTFYADSVKGRFTISRDNAKNSVYLQMNSLQPEDTAVYYCAADVYSYVSNCTYVSVFTYDYWGHGTQVTVSS”, the “polyreactivity (PSR sort gate)” value is “low polyreactivity”.
As for “QVQLVESGGRLVPAGGSLRLTCAASGIISVYYVMGWYRPAPGKERELVAAINRSGGNTYYADSVKGRFTISRDNAKNTVYLQMNSLKPEDTAVYYCKASLYFYRYGHDDESDYWGQGTQVTVSS”, the “polyreactivity (PSR sort gate)” value is listed as “high polyreactivity”.
As for “QVQLVESGGRLVQAGASLRLSCAASGRILYWNTMGWYRQAPGKERELVASITQNVGSTYYADSVKGRFTISRDNAKNTVYLQMISMIPEDTAVYYCAAKRLSWHRYGYWGQGTQVTVSS”, the “polyreactivity (PSR sort gate)” value is given as “low polyreactivity”.
Take “QVQLVESGGRLVQAGASLRLSCAASGSTFSTNAMGWYRQAPGKEREFVPAISRSGGRTYYADSVKGRFTISRDNAKNTVYLQMNSLKRDDTAVYYCAAGITHEGRDGDYWGQGTQVTVSS”: the “polyreactivity (PSR sort gate)” value is on record as “high polyreactivity”.
Take “QVQLVESGGRLVQAGCSLRLSCAASGFTFYQNAMGWYRQAPGKVRELVAAISVSGDSTYYADSVKGRLTISRDNAKNTVYLQMNSLKPEDTAVYYCTEYFYYLSLYYYYWFNYDYWGHGTQVTVSS”: the “polyreactivity (PSR sort gate)” value was “low polyreactivity”.
Then “QVQLVESGGRLVQAGGRLPLSCAASGSIFTGNAMGWYRQAPGKERELVAAITQRGGRTYYADSVKGRFTISRDNSKNTVYLQMNSLKPEDTAVYYCAADPPGYVYGKRYYWGQGTQVTVSS”, with “high polyreactivity”.
The result for “QVQLVESGGRLVQAGGRLRLSCAASGRTILLYAMGRYRQAPGKESELVPAIRSSTVSTYYADSVKGRFTISRDNAKNTVYLQMYSLKPEDTAVYYCAASRPKYGPSGVRYNYWGQGTQVTVSS” reads “high polyreactivity”.
In the case of “QVQLVESGGRLVQAGGRLRLSCAASGSIFLYNARGWYRQAPGKERELVAAINYSGVSTYYADSVKGRFTISRDNAKNTVYLQMNSLKPEDTAVYYCARRWNAFGSKGGYWGQGTQVTVSS”, the “polyreactivity (PSR sort gate)” value is on record as “high polyreactivity”.
On to “QVQLVESGGRLVQAGGRLRLSCAASGSISASYAMGWYRQAPGKERELVAAITSGGSTYYADSVKGRFTISRDNAKYTVYLQMNSLKPEDTAVYYCAKRPKRTYYPHIGYDYWGLGTQVTVSS”, for which the “polyreactivity (PSR sort gate)” value is on record as “low polyreactivity”.
For “QVQLVESGGRLVQAGGSIRLRCAASGNTFVYNDMGWYRQAPGKERELVADIRYSGSTYYADSVKGRFTISRDNATNTVYLEMNSLKPEDTAVYYCAKAYYVLSWMGYWGQGTQVTVSS”, the “polyreactivity (PSR sort gate)” value is given as “low polyreactivity”.
The result for “QVQLVESGGRLVQAGGSIRLSCAASGRIFGAYAMGWYRQAPGKERELVAAITQSGGSTFYADSVKGRFTISRDNAKNTVYLQMNSLKPEVTAVYYWGQGTQVTVSS” reads “low polyreactivity”; that for “QVQLVESGGRLVQAGGSLLLSSAASGRTFGIYAMGWSRQSPGKERELCAAITWSGDSTYYADSVKGRFTISRDNAKNTVYIQMNSLKPEDTAVYYCAADYVGLTSVRYDYWGQGTQVTVSS”, “low polyreactivity”; that for “QVQLVESGGRLVQAGGSLRFSCAASGGIFESYAMGGYRQAPGQERELVASISSGGSTYYADSVKGRFTISRDNAKNTVYLQMNSLKPEDTAVYYCNTDNGSHGMDYWGQGTQVTVSS”, “low polyreactivity”.
Take “QVQLVESGGRLVQAGGSLRLICAASGFTFGAYAMGWYRQAPGKERELVATIPYSGDSTYYADSVKGRFTISRDNAKNTVYLQMNSLKPEDTSVYYCAAYSTEGCGSPDWFESFDYWGQGTLVTVSS”: the “polyreactivity (PSR sort gate)” value is “low polyreactivity”.
Then “QVQLVESGGRLVQAGGSLRLICAASGFTFWYYAIGWYRQAPGKESEFVASISWNGGRTYYADSVKGRFTISRDNAKNTVYLQMNSLKPEDTAVYYCATRVIYSFTDFKGDYWGQGTQVTVSS”, with “high polyreactivity”.
The result for “QVQLVESGGRLVQAGGSLRLSCAASGFIFFTYAMGWYRQAPGKERELVAVITRGGSTYYADSVKGRFTISRDNAKNTVYLQMNSLKPEDTAVYYCAARRYRYFDGTVPLDYWGQGTQVSVSS” reads “high polyreactivity”.
For the sequence “QVQLVESGGRLVQAGGSLRLSCAASGFIFRKYAMGWYRQAHGKVRELVAGIDWSGCRTYYADSVKGRFTISRDNAKNTVYLQMNSLKPEDTAVYYCNSVFRARPDYDYWGVGTQVTVSS”, the “polyreactivity (PSR sort gate)” value is “high polyreactivity”.
In the case of “QVQLVESGGRLVQAGGSLRLSCAASGFTFARYTMGWYRQAPGKERELVAAISSRGSSTYYADSVKWRFTISRDNAKNTVYLQMNSLKPEDTAVYYCGAPPRYGYDYWGQGTQVTVSS”, the “polyreactivity (PSR sort gate)” value was “high polyreactivity”.
